1 molecule from article PMC5855441, “Detection of Thrombin Based on Fluorescence Energy Transfer between Semiconducting Polymer Dots and BHQ-Labelled Aptamers” can be followed below.

This data set has as its target thrombin (UniProt P00734;P00734 328-363;364-622). Kind of data set: fluorescence turn-on (FRET Pdots to BHQ-aptamer); 130 nM thrombin, Pdots present; F/F0 = 6.5; Buffer, salt and pH not given in the material (Hepes listed as reagent); incubation 60 min; Pdots-BHQ-TBA quenching plot at 298 K.

B1: BHQ-TBA (BHQ-labelled thrombin aptamer) (ssDNA)
DNA: GGTTGGTGTGGTTGG
As to B1, the binding result is given as “binds”.
